The text below walks through data of publication PMC6741143, “A putative merR family transcription factor Slr0701 regulates mercury inducible expression of MerA in the cyanobacterium Synechocystis sp. PCC6803” (MicrobiologyOpen, 2019).

The stoichiometry N is a count of units in the complex or per binding partner.

Series [1] has as its target T1, Slr0701 (6x-His, MerR family regulator) (Synechocystis sp. PCC6803, UniProt Q55963 1-137).
T1 sequence: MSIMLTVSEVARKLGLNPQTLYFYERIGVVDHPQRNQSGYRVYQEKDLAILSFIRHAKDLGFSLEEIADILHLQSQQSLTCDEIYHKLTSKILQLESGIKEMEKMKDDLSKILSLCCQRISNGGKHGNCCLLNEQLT
Put plainly: SPR; 62 uM HgCl2; EMSA: 20 ul, 80 ng DNA, 0.5 or 1 ug protein, binding buffer not specified, 30 min at 25 C, 6% native PAGE in 0.5x TBE at 4 C, SYBR Green; SPR: Biacore T200, SA. The note with it: protein: recombinant; tags: 6xHis (text says C-terminal; pET-28a NheI/EcoRI clone, also written 6x-His-Slr0701); chain copies: 2; label: 5' biotin on strand 1; blunt.

Series [2] deals with the molecule itself. Put plainly: SDS-PAGE without 2-mercaptoethanol; purified 6x-His-Slr0701 on 15% SDS-PAGE under semi-denaturing condition (without 2-mercaptoethanol), compared with a sample with 2-mercaptoethanol; monomer to dimer.

B1: Pslr0701 50-bp oligonucleotide duplex (dsDNA)
DNA 1: TACTACAATATATTCCCTATACTTAGGTATAAGGTTGTAGGTTGATATAG
DNA 2: CTATATCAACCTACAACCTTATACCTAAGTATAGGGAATATATTGTAGTA
B1: the binding signal in series [1] is ~1000 fold higher affinity with HgCl2 than without.

B2: 6x-His-Slr0701 protein (putative MerR family transcriptional regulator Slr0701) (natural protein, Synechocystis sp. PCC6803, UniProt Q55963 1-137, looked up)
chain: T1 sequence
notes: Slr0701, putative MerR family transcriptional regulator of Synechocystis sp; PCC6803; the slr0701 ORF amplified with primers from the start codon (GTG) to the stop codon and cloned into pET-28a(+) at NheI and EcoRI; not shown: His6, C-terminal, kept
Turning to B2, the “stoichiometry N” value in series [2] worked out at 2.
